The text below walks through data of PMC5638086, “Assessment of the protein interaction between coagulation factor XII and corn trypsin inhibitor by molecular docking and biochemical validation” (Journal of Thrombosis and Haemostasis, 2017).

The chains are these.
T1: α‐FXIIa (Homo sapiens, UniProt P00748)
T1 construct: purchased Enzyme Research Laboratories (Swansea, UK)
T1 sequence (P00748 373-615 limits assumed): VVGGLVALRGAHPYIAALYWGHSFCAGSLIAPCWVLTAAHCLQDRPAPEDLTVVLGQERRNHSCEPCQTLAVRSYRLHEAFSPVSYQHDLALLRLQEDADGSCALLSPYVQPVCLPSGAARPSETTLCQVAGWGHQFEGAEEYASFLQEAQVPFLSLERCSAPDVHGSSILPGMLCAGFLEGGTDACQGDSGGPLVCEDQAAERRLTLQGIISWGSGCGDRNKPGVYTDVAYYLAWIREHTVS
T1 sequence (P00748 20-372 partner limits assumed): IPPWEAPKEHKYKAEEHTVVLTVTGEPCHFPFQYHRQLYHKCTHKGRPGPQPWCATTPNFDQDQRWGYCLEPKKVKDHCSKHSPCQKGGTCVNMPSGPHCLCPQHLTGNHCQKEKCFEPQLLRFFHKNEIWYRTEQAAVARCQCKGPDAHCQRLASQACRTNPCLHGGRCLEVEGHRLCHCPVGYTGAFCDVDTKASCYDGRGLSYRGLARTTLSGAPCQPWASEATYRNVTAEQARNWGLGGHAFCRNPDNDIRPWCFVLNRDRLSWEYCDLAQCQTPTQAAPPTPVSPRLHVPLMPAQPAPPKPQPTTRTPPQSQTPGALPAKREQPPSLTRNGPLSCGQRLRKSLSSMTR

B1: L35A: rec‐CTI variant, alanine substitution of Leu35 (protein)
chain: SAGTSCVPGWAIPHNPLPSCRWYVTSRTCGIGPRAPWPELKRRCCRELADIPAYCRCTALSILMDGAIPPGPDAQLEGRLEDLPGCPREVQRGFAATLVTEAECNLATISGVAECPWILGGGTMPSK
modifications: assayed as His6-GST fusion (tag omitted); disulfides
B2: R27A/E39A: rec‐CTI double substitution R27A/E39A (protein)
chain: SAGTSCVPGWAIPHNPLPSCRWYVTSATCGIGPRLPWPALKRRCCRELADIPAYCRCTALSILMDGAIPPGPDAQLEGRLEDLPGCPREVQRGFAATLVTEAECNLATISGVAECPWILGGGTMPSK
modifications: assayed as His6-GST fusion (tag omitted); disulfides
B3: R42A: rec‐CTI variant, alanine substitution of Arg42 (protein)
chain: SAGTSCVPGWAIPHNPLPSCRWYVTSRTCGIGPRLPWPELKARCCRELADIPAYCRCTALSILMDGAIPPGPDAQLEGRLEDLPGCPREVQRGFAATLVTEAECNLATISGVAECPWILGGGTMPSK
modifications: assayed as His6-GST fusion (tag omitted); disulfides
B4: W37A: rec‐CTI variant, alanine substitution of Trp37 (protein)
chain: SAGTSCVPGWAIPHNPLPSCRWYVTSRTCGIGPRLPAPELKRRCCRELADIPAYCRCTALSILMDGAIPPGPDAQLEGRLEDLPGCPREVQRGFAATLVTEAECNLATISGVAECPWILGGGTMPSK
modifications: assayed as His6-GST fusion (tag omitted); disulfides
B5: R42A/R43A: rec‐CTI R42A/R43A double mutant (protein)
chain: SAGTSCVPGWAIPHNPLPSCRWYVTSRTCGIGPRLPWPELKAACCRELADIPAYCRCTALSILMDGAIPPGPDAQLEGRLEDLPGCPREVQRGFAATLVTEAECNLATISGVAECPWILGGGTMPSK
modifications: assayed as His6-GST fusion (tag omitted); disulfides
B6: E39A: rec‐CTI variant, alanine substitution of Glu39 (protein)
chain: SAGTSCVPGWAIPHNPLPSCRWYVTSRTCGIGPRLPWPALKRRCCRELADIPAYCRCTALSILMDGAIPPGPDAQLEGRLEDLPGCPREVQRGFAATLVTEAECNLATISGVAECPWILGGGTMPSK
modifications: assayed as His6-GST fusion (tag omitted); disulfides

Where a SMILES comes first, the peptide text is derived from it. Bridges are numbered along the chain shown (N, C = ends). Where no end group is shown, it is not given here.

In one assay the target is Full length activated FXIIa (α‐FXIIa) (UniProt P00748).
Test: not given
Conditions: not given
Turning to rec‐CTI R27A/R42A (natural protein), the IC50 of inhibition of α‐FXIIa enzymatic activity (S‐2302 cleavage) came out at 0.16 µM and the pIC50 of inhibition of α‐FXIIa enzymatic activity (S‐2302 cleavage) amounted to 6.8.
For the molecule rec‐CTI G32W (natural protein), the IC50 of inhibition of α‐FXIIa enzymatic activity (S‐2302 cleavage) is 13 µM and the pIC50 of inhibition of α‐FXIIa enzymatic activity (S‐2302 cleavage) is 4.89.
The matching figures for rec‐CTI R42A (natural protein): 0.19 µM and 6.72.
rec‐CTI W37A (natural protein): the IC50 of inhibition of α‐FXIIa enzymatic activity (S‐2302 cleavage) was determined as 0.11 µM and the pIC50 of inhibition of α‐FXIIa enzymatic activity (S‐2302 cleavage) stood at 6.97.
Consider “recombinant CTI (rec‐CTI) (natural protein)”, for which the IC50 of inhibition of α‐FXIIa enzymatic activity (S‐2302 cleavage) was 0.12 µM and the pIC50 of inhibition of α‐FXIIa enzymatic activity (S‐2302 cleavage) came to 6.94.
The matching figures for rec‐CTI R42A/R43A (natural protein): 11 µM and 4.98.
On the same counts, the results for rec‐CTI R27A/E39A (natural protein) are 0.26 µM and 6.58.
The matching figures for rec‐CTI L35A (natural protein): 4.9 µM and 5.31.
Molecule rec‐CTI R27A (natural protein) registered an IC50 of inhibition of α‐FXIIa enzymatic activity (S‐2302 cleavage) of 0.17 µM and a pIC50 of inhibition of α‐FXIIa enzymatic activity (S‐2302 cleavage) of 6.78.
In the case of rec‐CTI G30W (natural protein), the IC50 of inhibition of α‐FXIIa enzymatic activity (S‐2302 cleavage) was determined as 0.48 µM and the pIC50 of inhibition of α‐FXIIa enzymatic activity (S‐2302 cleavage) was determined as 6.32.
On the same counts, the results for rec‐CTI W22A (natural protein) are 19 µM and 4.72.
On the same counts, the results for rec‐CTI E39A (natural protein) are 0.14 µM and 6.85.

The target of another assay is T1, α‐FXIIa. In words: α‐FXIIa enzymatic assay (S‐2302 chromogenic substrate cleavage, pNA release). Type of assay: biochemical. As to conditions: 200 μM substrate peptide, 10 nM α‐FXIIa. Here is the method: The enzymatic activity of α‐FXIIa was measured by monitoring the amount of pNA chromophore released from substrate H‐D‐Pro‐Phe‐Arg‐pNA (S‐2302). Assays were performed in a 100‐μL volume at 33 °C in 96‐well plates in a Perkin Elmer (Seer Green, UK) Envision plate reader, and pNA release was followed over a period of 6 h by reading the absorbance at 405 nm. Absorbance values were converted to pNA concentrations by comparison with a standard curve obtained under exactly the same instrument conditions. All absorbance values were within the linear measurement range of the instrument. Initial rates were calculated on the basis of the first 30 min of incubation. To assess the K M, concentrations of substrate peptide between 0.1 mM and 0.6 mM were incubated with 10 nM α‐FXIIa, enzymatic activity was measured as described above, and data were analyzed by non‐linear regression with the Michaelis–Menten algorithm (GRAPHPAD PRISM, version 6.04). To assess the inhibitory mechanism of CTI, 30 nM CTI was incubated with these same concentrations of substrate peptide, the reaction was initiated by the addition of 10 nM α‐FXIIa, enzymatic activity was measured as described above, and data were analyzed by non‐linear regression with the Michaelis–Menten algorithm (GRAPHPAD PRISM, version 6.04) and by linear regression after Lineweaver–Burk transformation. To assay inhibitors, concentrations of CTI variant proteins between 10^−8 M and 10^−5 M or concentrations of peptides between 10^−6 M and 10^−3 M were incubated with 200 μM substrate peptide, the reaction was initiated by addition of 10 nM α‐FXIIa, enzymatic activity was measured as described above, and IC50 values were determined by non‐linear regression analysis (GRAPHPAD PRISM, version 6.04) using the log[inhibitor] versus response – variable slope algorithm with a bottom constraint.
As to “glutathione‐S‐transferase [GST, reference compound]”, the “Inhibition of α‐FXIIa, result in words” value is given as “did not inhibit”.

Staying with this assay, now noted: CTI variant proteins 10^−8 M to 10^−5 M, 200 μM S‐2302, 10 nM α‐FXIIa, 33 °C, initial rate of first 30 min, A405; SE of the fit, n = 3–5 independent experiments.
Consider “glutathione‐S‐transferase [GST, reference compound]”, for which the “pIC50 ± SE” value is given as “NIA”.

Still in this assay, the particulars now being: CTI variant proteins 10^−8 M to 10^−5 M, 200 μM S‐2302, 10 nM α‐FXIIa, 33 °C, initial rate of first 30 min, A405; SE of the fit, n = 3–5 independent experiments; SEM.
As to B1, the “pIC50 ± SE” value came to 5.31 ± 0.05.
On the same count and under the same terms, the same measure for B2: 6.58 ± 0.08; for B3: 6.72 ± 0.15; for B4: 6.97 ± 0.06.
The same measure, in the same setting: the same measure for B5: 4.98 ± 0.02; for B6: 6.85 ± 0.06.

Staying with this assay, now noted: IC50 corresponding to the pIC50; CTI variant proteins 10^−8 M to 10^−5 M, 200 μM S‐2302, 10 nM α‐FXIIa.
As for “glutathione‐S‐transferase [GST, reference compound]”, the “IC50 (M)” value is reported as “NIA”.

The assay is the same for the next values; noted with them: IC50 corresponding to the pIC50; synthetic peptides 10^−6 M to 10^−3 M.
Take “IGPRLPWP [CTI(31–38), eight‐mer peptide spanning the loop between helices α1 and α2 (CTI residues 31–38)]”: the “IC50 (M)” value was “NIA”.
Take “GISTAGPWRRRPPELLKVTY [Scrambled, scrambled control peptide]”: the “IC50 (M)” value is “NIA”.

Still in this assay, the particulars now being: synthetic peptides 10^−6 M to 10^−3 M, 200 μM S‐2302, 10 nM α‐FXIIa, 33 °C, initial rate; SE of the fit, n = 3–5 independent experiments.
Turning to “IGPRLPWP [CTI(31–38), eight‐mer peptide spanning the loop between helices α1 and α2 (CTI residues 31–38)]”, the “pIC50 ± SE” value is given as “NIA”.
On the same count and under the same terms, next, “GISTAGPWRRRPPELLKVTY [Scrambled, scrambled control peptide]”: “NIA”.

Staying with this assay, now noted: synthetic peptides 10^−6 M to 10^−3 M, 200 μM S‐2302, 10 nM α‐FXIIa, 33 °C, initial rate; SE of the fit, n = 3–5 independent experiments; SEM.
Turning to YVTSRTAGIGPRLPWPELKRR [CTI(23–43)], the midpoint of inhibition, the IC50, lay at 1150 µM.
The same measure, in the same setting: next, RWYVTSRTAGIGPRLPWPELKRR [CTI(21–43)]: 457 µM; RWYVTSRTAGIGPRLPWPELKR [CTI(21–42)]: 200 µM.

Still in this assay, the particulars now being: synthetic peptides; relative to recombinant CTI.
Turning to `CC[C@H](C)[C@@H]1NC(=O)CNC(=O)[C@H](C)NC(=O)[C@H]([C@@H](C)O)NC(=O)[C@H](CCCNC(=N)N)NC(=O)[C@H](CO)NC(=O)[C@H]([C@@H](C)O)NC(=O)[C@H](C(C)C)NC(=O)[C@H](Cc2ccc(O)cc2)NC(=O)[C@H](Cc2c[nH]c3ccccc23)NC(=O)[C@H](CCCNC(=N)N)NC(=O)[C@@H](N)CSSC[C@@H](C(=O)O)NC(=O)[C@H](CCCNC(=N)N)NC(=O)[C@H](CCCNC(=N)N)NC(=O)[C@H](CCCCN)NC(=O)[C@H](CC(C)C)NC(=O)[C@H](CCC(=O)O)NC(=O)[C@@H]2CCCN2C(=O)[C@H](Cc2c[nH]c3ccccc23)NC(=O)[C@@H]2CCCN2C(=O)[C@H](CC(C)C)NC(=O)[C@H](CCCNC(=N)N)NC(=O)[C@@H]2CCCN2C(=O)CNC1=O` [CTI(20–44)] (H-CRWYVTSRTAGIGPRLPWPELKRRC-OH; disulfide 1-25; N-terminus and C-terminus assumed), the “Fold reduction in inhibitory activity as compared with rec‐CTI” value amounted to 2416 fold.
